The source of these data is patent US20090068110A1, “ANTIBODIES TO INSULIN-LIKE GROWTH FACTOR RECEPTOR” (Genentech, Inc., priority 2006, published 2009).

For one experiment, the target named is T1, human IGF-1R-ECD (Homo sapiens, UniProt P08069).
T1 construct: containing the extracellular domain (ECD, amino acids 1-902) tagged with 10 or 12 histidine residues at the carboxyl terminus; His10 or His12 (C); made in house; host or cells: CHO cells
Kind of experiment: phage-competition ELISA (phage IC50). It is filed as binding. Here is the method: MAXISORP™ microtiter plates were coated with human IGF-1R-ECD at 5 μg/ml in PBS overnight and then blocked with CASEIN BLOCKER™ reagent (Pierce Biotechnology, Inc.). Phage from culture supernatants were incubated with serially diluted IGF-1R-ECD in PBS with 0.05% TWEEN 20™ surfactant (PBST) containing 1% bovine serum albumin (BSA) in a tissue-culture microtiter plate for 1 hour, after which 80 μl of the mixture was transferred to the target-coated wells for 15 minutes to capture unbound phage. The plate was washed with PBST, and HRP-conjugated anti-M13 (Amersham Pharmacia Biotech) was added (1:5000 in PBST containing 1% BSA) for 40 minutes. The plate was washed with PBST and developed by adding tetramethylbenzidine (TMB) substrate (Kirkegaard and Perry Laboratories, Gaithersburg, Md.). The absorbance at 450 nm was plotted as a function of target concentration in solution to determine an IC50. […] For the humanized hybridoma-derived clones, 2B4, 9F2, and 10H5, phage-Fab was used.
This assay was conducted as described in Section 1-II-A-(4) of this Example. For the YW95-phage-derived clones from the VH/VL phage library, phage-Fab-Zip was used.

Another experiment deals with cynomolgus-monkey IGF-1R. Kind of experiment: BIACORE surface-plasmon resonance, cynomolgus-monkey IGF-1R. Type of experiment: binding. Conditions: IgG, FIG. 15. Here is the method: Binding affinities of selected antibodies to IGF-1R were determined by surface plasmon resonance measurements on a BIACORE™ 3000 instrument (BIAcore, Inc.). Human, murine, or cynomolgus-monkey IGF-1R was immobilized at a density of about 500 RU on the flow cells of a PIONEER™ CM5 sensor chip. Immobilization was achieved by random coupling through amino groups using a protocol provided by the manufacturer. Sensorgrams were recorded for binding of anti-IGF-1R Fab or IgG to these surfaces by injection of a series of solutions ranging from 500 nM to 3.1 nM and 250 nM to 0.78 nM in two-fold increments, respectively. The signal from the reference cell was subtracted from the observed sensorgram. Kinetic constants were calculated by non-linear regression analysis of the data according to a 1:1 Languir binding model using software supplied by the manufacturer.

For experiment [1], the target named is human IGF-1R-ECD (secreted recombinant extracellular domain, amino acids 1-902, tagged with 10 or 12 histidine residues at the carboxyl terminus) (human) (UniProt P08069). Kind of experiment: BIACORE surface plasmon resonance: IGF-1R immobilized on CM5 chip (about 500 RU), Fab injected 500-3.1 nM, 25 C, 1:1 Langmuir model.
The test system of a further experiment is MCF7 cells. Kind of experiment: cell viability assay ([…]-GLO), MCF7. Type of experiment: cell-based, human. The procedure: The different cell lines were cultured in their respective culture media at 37° C. in a humidified atmosphere of 5% CO2. Subsequently, cells were detached from tissue-culture flasks using the cell-dissociation solution, TRIPLE SELECT™ solution (InVitrogen, Carlsbad, Calif., USA), and centrifuged at 1000 rpm for five minutes. Detached cells were washed once with PBS, counted, and seeded in 96-well plates (Corning, N.Y., USA) at 2000 cells per well in 100 μL of culture media. After an overnight incubation at 37° C. in a humidified atmosphere of 5% CO2, the cell-culture medium was replaced with 50 μL of starvation medium consisting of serum-free RPMI 1640™ medium without phenol red. The cells were then starved for five hours in the incubator before addition of 25 μL of each anti-IGF-1R monoclonal antibody at various dilutions in serum-free RPMI 1640™ phenol red-free media. Later, 25 μL of phenol red-free RPMI 1640™ media supplemented with 4% of fetal bovine serum (FBS) (Sigma) with or without 4 ng/ml of human recombinant IGF-I were added on top of the 50 μL of antibody. The cells were then placed at 37° C. with 5% CO2 for 5 to 6 days. At the end of the assay, cell viability was measured using the […]-GLO® kit according to the manufacturer's instructions (Promega, Madison, Wis., USA).
For the cell viability assay, MCF7 cells were seeded onto 96-well plates at 2000 cells/well and incubated overnight at 37° C. in a humidified atmosphere of 5% CO2/95% air in RPMI 1640™ medium supplemented with 10% FBS (Sigma, St. Louis, Mo.) and 1% GLUTAMAX™ reagent (Promega, Madison, Wis.). The next day cells were starved in serum-free RPMI 1640™ medium (phenol red-free) for five hours followed by addition of serially diluted human chimeric versions of 9F2, 2B4, and 10H5, as well as h10H5.vX, for one hour. Subsequently, phenol red-free PRMI 1640™ medium supplemented with FBS or IGF-I was added to reach a final concentration of 1% FBS and 1 ng/mL IGF-I. Cells were then incubated with continuous IGF-1R antibody exposure. After five days, the cell viability was then determined using a […]-GLO™ kit (Promega, Madison, Wis.) according to the manufacturer's instructions.

The next experiment deals with IGF-1R (Homo sapiens, UniProt P08069). Kind of experiment: antibody-induced IGF-1R down-regulation in MCF7 cells, Western blotting. Type of experiment: cell-based. Further details: IGF-1R is normally localized at the plasma membrane of MCF7 cells; endogenous in cells; host or cells: MCF7. Conditions: 10 μg/ml, 1, 4, 8 or 24 hours, 10% serum. Here is the method: Further exploration of the mechanism of action of anti-IGF-1R antibodies was carried out by testing the ability of the antibodies of the invention, particularly human chimeric antibodies of 2B4, 9F2, 10H5, as well as human phage antibody YW95.6, to induce IGF-1R down-regulation. MCF7 cells were treated with various antibodies (10 μg/ml) for 1, 4, 8, or 24 hours in the presence of 10% serum-containing medium. The cell lysates were harvested, separated by SDS-PAGE, and analyzed for IGF-1R levels by Western blotting using an anti-IGF-1R beta-chain antibody (Cell Signaling Technology, Inc.; Beverly, Mass., USA) or anti-beta-actin antibody.
In a separate experiment, MCF7 cells were treated with serially diluted h10H5, and the cell lysates were analyzed for IGF-1R and IR levels using anti-IGF-1R and anti-IR β-chain antibodies at 1, 2, 4, and 8 hours post-continuous treatment.

The mark [2] stands for this setting: YW95 phage-derived clones displayed as bivalent Fab-Zip on phage, read-out: phage IC50.

Where a chain is given by its changes, count along the chain named. “Also recorded” adds a separate entry of the source. Like-named read-outs stand apart in the source and are kept apart here.

B1: h2B4.vX: humanized anti-IGF-1R antibody, direct HVR graft of murine 2B4; VL SEQ ID NO:44, VH SEQ ID NO:47 (antibody, V domains shown)
VH: EVQLVESGGGLVQPGGSLRLSCAASGYNLANYGLNWVRQAPGKGLEWVGWINTNTGAPTYAEEFKGRFTISADTSKNTAYLQMNSLRAEDTAVYYCARSIYYYASRYFNVWGQGTL
VL: DIQMTQSPSSLSASVGDRVTITCRASQDISNYLNWYQQKPGKAPKLLIYYTSRLHSGVPSRFSGSGSGTDFTLTISSLQPEDFATYYCQQGNTLPWTFGQGTKVEIKR
modifications: sequence is synthesized
Turning to B1, the “binding affinity (phage IC50) against IGF-1R-ECD, in words” value with human IGF-1R-ECD (monovalent phage-Fab, after HVR grafting) is “micromolar binding affinity; also recorded: decreased into the micromolar range”.

B2: h9F2.vX: humanized anti-IGF-1R antibody, direct HVR graft of murine 9F2; VL SEQ ID NO:49, VH SEQ ID NO:51 (antibody, V domains shown)
VH: B1 VH with N28T, L34M, A57K, A61S, E62D, A104G
VL: B1 VL with S30N, N34T
modifications: sequence is synthesized
For the molecule B2, the “binding to human versus cyno IGF-1R” value with cynomolgus-monkey IGF-1R is “comparable for human and cyno IGF-1R”. The IC50 with human IGF-1R-ECD (humanized hybridoma-derived clones displayed on phage as monovalent Fab, read-out: binding affinity (phage IC50) against IGF-1R-ECD) was found to be 60 nM.

B3: murine 2B4 Fab (Fab, V domains shown)
VH: QIQLVQSGPELKKPGETVKISCKASGYNLANYGLNWVKQAPGEGLKWMGWINTNTGAPTYAEEFKGRFVFFLETSASTAYLQINNLSDEDTATYFCARSIYYYASRYFNVWGAGTS
VL: DIQMTQTTSSLSASLGDKVTISCRASQDISNYLNWYQQKPDGTIKLLIYYTSRLHSGIPSRFSGSGSGTDYSLTISNLEQEDIATYFCQQGNTLPWTFGGGTKVEIKR
With B3, the Kd in experiment [1] was 24 nM.

B4: chimeric 2B4: human chimeric version of murine 2B4 (antibody, V domains shown)
VH: B3 VH
VL: B3 VL
With B4, the “comparison of inhibitory effect on MCF7 proliferation / viability” value in the experiment on MCF7 cells (in the presence of IGF-I) was “equivalent at decreasing the MCF7 cell viability”. Further, in the experiment with IGF-1R, the IGF-1R down-regulation entry was “rapidly down-regulated and reached maximal reduction by eight hours”.

B5: murine 10H5 Fab (Fab, V domains shown)
VH: QVQLQQPGAELVKPGASVTLSCKASGYTFTRFWIHWVKQRPGQGLEWIGEINPSNGRTNYNENFKNKATLTVDTSSSTAYMQLSSLTSEVSVVYYCARGGRLDQWGQGTT
VL: DIVMTQSQKFMSTSLGDRVSVTCKASQNVGSNVAWYQQKPGQSPEALIYSASYRYSGVPDRFTGSGSGTDFTLTISNVQSEDLAEYFCHQYNNYPYTFGGGTKVEIKR
On to B5, for which, in experiment [1], the Kd worked out at 22 nM.

B6: YW95.3: anti-IGF-1R phage-display clone from VH/VL library; VL SEQ ID NO:66, VH SEQ ID NO:70 (antibody, V domains shown)
VH: EVQLVESGGGLVQPGGSLRLSCAASGFTFSSYAMSWVRQAPGKGLEWVSRISPSGGSTYYADSVKGRFTISADTSKNTAYLQMNSLRAEDTAVYYCAREHYFHWGGMDVWGQGTL
VL: DIQMTQSPSSLSASVGDRVTITCRASQSISSYLAWYQQKPGKAPKLLIYGASSRASGVPSRFSGSGSGTDFTLTISSLQPEDFATYYCQQYYSSPLTFGQGTKVEIKR
modifications: sequence is synthesized
On to B6, for which the IC50 in the experiment with human IGF-1R-ECD (setting [2]) is 20 nM.

B7: YW95.81: anti-IGF-1R phage-display clone from VH/VL library; VL SEQ ID NO:68, VH SEQ ID NO:72 (antibody, V domains shown)
VH: EVQLVESGGGLVQPGGSLRLSCAASGFSFSSQGISWVRQAPGKGLEWVSTISYDGSTYYADSVKGRFTISADTSKNTAYLQMNSLRAEDTAVYYCARQFMLWGKQFGMDVWGQGTL
VL: B6 VL with Y91R, Y92F, S94V, L96F
modifications: sequence is synthesized
Consider B7, for which, in the experiment with human IGF-1R-ECD (setting [2]), the IC50 was 20 nM.

B8: YW95.6: human phage antibody clone against IGF-1R; VL SEQ ID NO:67, VH SEQ ID NO:71 (antibody, V domains shown)
VH: B6 VH with H100E, F102Y, H103Y, G106A
VL: B6 VL
modifications: sequence is synthesized
B8: the “effect on the MCF7 cell viability compared to the media control” value in the experiment on MCF7 cells (initial screen, 0.12 to 10 μg/ml) is on record as “no effect”. The IGF-1R down-regulation result with IGF-1R was “rapidly down-regulated and reached maximal reduction by eight hours”. The IC50 in the experiment with human IGF-1R-ECD (setting [2]) worked out at 20 nM.

B9: YW95.87: anti-IGF-1R phage-display clone from VH/VL library; VL SEQ ID NO:69, VH SEQ ID NO:73 (antibody, V domains shown)
VH: B6 VH with H100S, F102Y, H103E, G106A
VL: B6 VL
modifications: sequence is synthesized
Turning to B9, the half-inhibitory concentration (IC50) in the experiment with human IGF-1R-ECD (setting [2]) is 20 nM.
